Positions count from the first letter of the chain named.
B1: 80-F10A6, IgG1, Kappa (antibody, V domains shown)
VH: EVQLQQSGPVLVNPGASVKISCKASGYSFTGYYMNWVKQSPEKSLEWIGEVNPITGDTTYSQNFKAKTTLTVDRSSSTAYMQLKSLTSEDSAVYYCTRRDYGTSLDYWGQGTTLTVSS
VL: DVQITQSPSYLAASPGETITIHCRASKSISRYLAWYQEKPGKINTLLIYAGSTLHLGIPSRFSGSGSGTDFTLTISSLELEDFAMYYCQQHNEYPITFGAGTKLELK
B2: 76-F8C6, IgG4, Kappa (antibody, V domains shown)
VH: EVKLEESGGGLVQPGGSMKLSCVASGFTFTNSWMNWVRQSPERGLDWVAQIQLKSDNYATRYVESVKGRFTISRDDSKNSVYLQMNNLRAEDTGIYYCTTGTDYWSQGTTLTVSS
VL: not shown
B3: 75-H8B9, IgG4, Kappa (antibody, V domains shown)
VH: EVNLEESGGGLVQPGGSRQLSCVASGLTFSKHWMNWVRQSPDKGLEWVAQIQLKSDNYAIRYVDSVKGRFTISRDDSENTVYLQMNNLRAEDTGIYYCTTGTDYWGQGTTLTVSS
VL: not shown
B4: 67-H2E7, IgG1, Kappa (antibody, V domains shown)
VH: EVQLQQSGPELVKPGASVKISCKASGYEFTGYHMNWVKQSPEKSLEWIGEINPITSDKTFNQKFKAKATLTVDRSSTTAYMHLKSLTSEDSAVYYCARRDYDTSLDYWGQGTTLTVSS
VL: DVQITQSPSYLAASPGETITIYCRASKSISKYLAWYQEKPEKTNRLLIYAGSTLQSGIPSRFRGSGSGKDFTLTVSGLEPEDFAMYYCQQHNEYPLTFGAGTKLDLK
B5: 67-H2E7, IgG4, Kappa (antibody, V domains shown)
VH: B4 VH
VL: B4 VL
B6: 79-E3H3, IgG1, Kappa (antibody, V domains shown)
VH: B4 VH with T77S
VL: B4 VL with D105E
B7: 79-E3H3, IgG4, Kappa (antibody, V domains shown)
VH: B4 VH with T77S
VL: B4 VL with D105E
B8: 85-D5A10 (4434), IgG1, Kappa (antibody, V domains shown)
VH: B4 VH with T77S, E89D, D102G
VL: B4 VL with N44I, L96I, D105E, K107I
B9: 89-E8C12 (4428), IgG1, Kappa (antibody, V domains shown)
VH: B4 VH with E28D, H33Y, V37M, D57H, K58N, T77S, D102G
VL: B4 VL with N44I, K69T, D105E
B10: 90-D11B6, IgG4, Kappa (antibody, V domains shown)
VH: EVQLQQSGPELVKPGASVRISCKASGYSFTGYYMNWVKQSPEKNLEWIGEINPITGGSTYNQKFVAKATLTVDRSSSTAYMQLKSLTSEDSAVYYCTRRDYDTSLDYWGQGTTLTVSS
VL: B1 VL with H22N, R31K, I43T, N44I, T45K, H55Q, L56S, S67Y, L80P, I96L
B11: 59-G9D7, IgG4, Kappa (antibody, V domains shown)
VH: QVQLQQPGADLVKPGASVKLSCKASGYTVTTYWMHWVRQRPGRGLEWIGRIDPNSGETKYSEKFKNKATLTVDRPSSTAYMQLSSLTFEDSAVYFCAIYYYLNNFLFDYWGQGTTLTVSS
VL: ENVLTQSPAIMSASPGEKVTMTCRASSSVSSSYLHWYQKKSGASPKLWIYSTSNLASGVPARFSGSGSGTSYSLTISSVEAEDAATYYCQQYSGYPLTFGAGTKLELK

Biological target: T1, human CD24 on cells (human, UniProt P25063 27-59)
T1 chain (looked up): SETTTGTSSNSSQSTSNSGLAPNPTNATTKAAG
Experiment: cell-based or functional assay

| EC50 of Phagocytosis assay, IgG1, Kappa; HEK293-CD24 [µg/mL] | EC50 of Phagocytosis assay, IgG1, Kappa; MCF-7 [µg/mL] | EC50 of Phagocytosis assay, IgG1, Kappa; NALM6 [µg/mL] | EC50 of Phagocytosis assay, IgG1, Kappa; OVCAR3 [µg/mL] | EC50 of Phagocytosis assay, IgG4, Kappa; HEK293-CD24 [µg/mL] | EC50 of Phagocytosis assay, IgG4, Kappa; MCF-7 [µg/mL] | EC50 of Phagocytosis assay, IgG4, Kappa; NALM6 [µg/mL] | EC50 of Phagocytosis assay, IgG4, Kappa; OVCAR3 [µg/mL] | Binder |
| --- | --- | --- | --- | --- | --- | --- | --- | --- |
| 0.39 | 0.57 | 0.46 | 2.23 | – | – | – | – | B1 |
| – | – | – | – | 0.4 | 2.44 | 1.62 | 0.27 | B2 |
| – | – | – | – | 0.4 | 0.76 | 0.84 | 0.24 | B3 |
| 0.42 | 0.45 | 0.22 | 8.46 | – | – | – | – | B4 |
| – | – | – | – | 0.51 | 1.28 | 0.68 | 0.71 | B5 |
| 0.19 | 0.52 | 0.49 | 0.44 | – | – | – | – | B6 |
| – | – | – | – | 0.58 | 1.42 | 0.72 | 0.42 | B7 |
| 6.76 | 0.42 | 0.32 | 0.13 | – | – | – | – | B8 |
| 0.2 | 0.33 | 0.23 | 0.15 | – | – | – | – | B9 |
| – | – | – | – | 2.78 | 1.94 | 1.31 | 0.86 | B10 |
| – | – | – | – | 2.08 | 0.19 | 6.57 | 1.26 | B11 |

From patent US20260265403A1 (TJ BIOPHARMA SHANGHAI, published 2026)
